Results as given in article doi:10.1101/2024.12.20.629688.

How the values were obtained:
[1] = target: myristoylated human Arf1, GTP-bound form, anchored on membrane (nanodiscs or LUVs) (human) (UniProt P84077)
[2] = target: myristoylated human Arf1, GTP-bound form, anchored on membrane (nanodiscs or LUVs) (human) (UniProt P84077); remark: listed apart in the source
[3] = target: myrArf1 with Glu54 mutated to Ala (human) (UniProt P84077)
[4] = target: myristoylated human Arf1, GTP-bound form, anchored on membrane (nanodiscs or LUVs) (human) (UniProt P84077); assay: not stated; binding of the K391A mutant, shown in Fig. SI5

Sequence of myristoylated human Arf1, GTP-bound form, anchored on membrane (nanodiscs or LUVs) (human) (P84077 whole entry): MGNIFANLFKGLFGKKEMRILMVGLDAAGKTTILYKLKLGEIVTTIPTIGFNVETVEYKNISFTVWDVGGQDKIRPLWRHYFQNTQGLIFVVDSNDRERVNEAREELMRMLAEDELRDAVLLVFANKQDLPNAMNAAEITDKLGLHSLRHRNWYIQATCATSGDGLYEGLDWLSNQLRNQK
Sequence of wt PZA, [325–724]ASAP1 (PH, Arf GAP and ankyrin repeat domains) (Q9QWY8 325-724): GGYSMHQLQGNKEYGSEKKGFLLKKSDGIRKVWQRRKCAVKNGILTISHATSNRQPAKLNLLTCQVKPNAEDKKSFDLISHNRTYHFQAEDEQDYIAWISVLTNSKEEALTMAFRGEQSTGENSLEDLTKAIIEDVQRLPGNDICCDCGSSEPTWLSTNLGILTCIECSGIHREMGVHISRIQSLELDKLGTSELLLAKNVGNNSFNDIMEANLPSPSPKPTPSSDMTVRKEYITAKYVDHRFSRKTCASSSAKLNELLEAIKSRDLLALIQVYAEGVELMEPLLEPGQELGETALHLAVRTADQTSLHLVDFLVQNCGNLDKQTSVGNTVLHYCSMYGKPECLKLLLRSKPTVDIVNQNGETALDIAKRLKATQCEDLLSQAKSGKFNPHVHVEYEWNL
Sequence of myrArf1 with Glu54 mutated to Ala (human) (P84077 other isoform, or with tags, fused parts or gaps, stated change not applied): as the sequence (P84077 whole entry) above, with E54A counted along it
Sequence of PZA with Phe438 mutated to Ala (Q9QWY8 other isoform, or with tags, fused parts or gaps, change not shown): as the sequence (Q9QWY8 325-724) above, with F114A counted along it
Sequence of PZA with Lys391 mutated to Ala (Q9QWY8 other isoform, or with tags, fused parts or gaps, change not shown): as the sequence (Q9QWY8 325-724) above, with K67A counted along it
Sequence of PZA with His405 mutated to Glu (Q9QWY8 other isoform, or with tags, fused parts or gaps, change not shown): as the sequence (Q9QWY8 325-724) above, with H81E counted along it
Sequence of ΔN14 PZA (PZA without residues 325–338) (Q9QWY8 339-724, stated change not applied): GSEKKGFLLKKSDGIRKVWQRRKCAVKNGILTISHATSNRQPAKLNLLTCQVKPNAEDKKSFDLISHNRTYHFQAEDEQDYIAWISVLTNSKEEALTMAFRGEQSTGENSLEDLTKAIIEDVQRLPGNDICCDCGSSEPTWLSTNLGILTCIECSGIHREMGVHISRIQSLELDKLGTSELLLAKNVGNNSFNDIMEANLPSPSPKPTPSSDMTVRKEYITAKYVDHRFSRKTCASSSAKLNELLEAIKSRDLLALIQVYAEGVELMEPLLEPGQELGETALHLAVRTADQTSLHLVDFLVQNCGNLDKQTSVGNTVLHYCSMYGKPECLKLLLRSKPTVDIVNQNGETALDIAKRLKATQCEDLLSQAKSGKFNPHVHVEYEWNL

| ArfGAP activity (C50: concentration of PZA for 50% GTP hydrolysis in 3 min), fold reduction against wild type [1] [fold] | Substance | further results |
| --- | --- | --- |
| 100 | PZA with Lys391 mutated to Ala (from UniProt Q9QWY8 325-724) (domain or fragment) |  |
| 15 | PZA with Phe438 mutated to Ala (from UniProt Q9QWY8 325-724) (domain or fragment) |  |

The next lines start with the substance.

| Substance | ArfGAP activity (C50: concentration of PZA for 50% GTP hydrolysis in 3 min), fold reduction against wild type [1] [fold] | further results |
| --- | --- | --- |
| ΔN14 PZA (PZA without residues 325–338) (from UniProt Q9QWY8 339-724) (domain or fragment) |  | GAP activity relative to wt PZA (fold of wt PZA) [2]: < 0.01 |
| wt PZA, [325–724]ASAP1 (PH, Arf GAP and ankyrin repeat domains) (from UniProt Q9QWY8 325-724) (domain or fragment) |  | ArfGAP activity (C50: concentration of PZA for 50% GTP hydrolysis in 3 min), fold reduction against wild type [3]: 70 fold |
| PZA with His405 mutated to Glu (from UniProt Q9QWY8 325-724) (domain or fragment) | 5 |  |
| ASAP1 PH domain with Lys391 mutated to Ala (from UniProt Q9QWY8 325-451) (domain or fragment) |  | fold reduction of binding against wild type [4]: 2 fold |
